Assays:
[1] = target: human CD79b (hCD79b) immobilised for surface plasmon resonance (Homo sapiens, UniProt P40259); assay: SPR
[2] = target: CD19 expressed on K562 cells (K562-CD19) (Homo sapiens, UniProt P15391); assay: flow cytometry on cells
CD19 expressed on K562 cells (K562-CD19), sequence (P15391 20-556): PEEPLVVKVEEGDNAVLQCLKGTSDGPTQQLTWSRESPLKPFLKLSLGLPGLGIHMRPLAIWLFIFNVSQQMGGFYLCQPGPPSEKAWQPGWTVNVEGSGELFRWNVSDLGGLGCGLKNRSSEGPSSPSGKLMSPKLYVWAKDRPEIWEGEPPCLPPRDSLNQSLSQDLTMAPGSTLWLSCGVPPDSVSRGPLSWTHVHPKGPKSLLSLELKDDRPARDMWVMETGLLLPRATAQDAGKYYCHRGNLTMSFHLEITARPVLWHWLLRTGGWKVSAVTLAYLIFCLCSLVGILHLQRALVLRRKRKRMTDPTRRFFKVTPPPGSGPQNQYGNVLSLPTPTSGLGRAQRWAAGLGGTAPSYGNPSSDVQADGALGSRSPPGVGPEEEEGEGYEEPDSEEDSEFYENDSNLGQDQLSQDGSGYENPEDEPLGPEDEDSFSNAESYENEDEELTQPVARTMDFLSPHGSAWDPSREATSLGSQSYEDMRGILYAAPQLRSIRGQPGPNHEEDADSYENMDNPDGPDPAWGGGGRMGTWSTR

human CD79b (hCD79b) immobilised for surface plasmon resonance, sequence (P40259 29-229): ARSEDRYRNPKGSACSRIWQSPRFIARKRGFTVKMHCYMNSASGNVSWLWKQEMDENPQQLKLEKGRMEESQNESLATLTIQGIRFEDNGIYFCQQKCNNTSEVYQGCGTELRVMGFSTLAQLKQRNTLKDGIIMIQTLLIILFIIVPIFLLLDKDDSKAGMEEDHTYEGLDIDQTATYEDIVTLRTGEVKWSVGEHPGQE

binding result [1]: binds | binding result [2]: no binding
B1: CARLY2 monoclonal murine antibody against CD79b (mouse monoclonal IgG1 CD79b.1.50) (antibody, V domains shown)
VH: QVQLQQPGAELVRPGASVKLSCKASGYTFTTYWMNWVKQRPGQGLEWIGMIDPSDSETHYNQMFKDKATLTVDKSSTTAYMQLSSLTSEDSAVYYCARTLSYWGQGTLVTVSA
VL: not shown
